Assay results taken from US20240148895A1 (EISAI R AND D MANAGEMENT, published 2024).

B1: antibody A (human anti-CEACAM6_#84.7 monoclonal antibody) (antibody, human IgG1, lambda, V domains shown)
VH: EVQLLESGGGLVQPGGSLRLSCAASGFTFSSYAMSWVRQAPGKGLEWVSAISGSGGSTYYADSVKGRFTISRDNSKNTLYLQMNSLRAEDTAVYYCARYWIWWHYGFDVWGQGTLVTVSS
VL: SSELTQDPAVSVALGQTVRITCQGDSLRSYYASWYQQKPGQAPVLVIYGKNNRPSGIPDRFSGSSSGNTASLTITGAQAEDEADYYCQSYYSSSHYVVFGGGTKLTVLG
notes: The heavy chain constant region is human IgG1/2m: IgG1 CH1 and hinge, IgG2 CH2 and CH3 with V234A and G237A (Eu numbering); The light chain constant region is human Ig lambda
B2: human antibody fragment (scFv) specifically binding to human CEACAM6, from which antibody A was designed (scFv, V domains shown)
VH: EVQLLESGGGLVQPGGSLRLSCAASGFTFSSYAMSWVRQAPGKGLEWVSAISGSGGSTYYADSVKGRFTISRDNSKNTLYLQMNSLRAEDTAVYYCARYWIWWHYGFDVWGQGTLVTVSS
VL: SSELTQDPAVSVALGQTVRITCQGDSLRSYYASWYQQKPGQAPVLVIYGKNNRPSGIPDRFSGSSSGNTASLTITGAQAEDEADYYCQSYYSSSHYVVFGGGTKLTVL
notes: Tested as a single-chain FLAG-tagged scFv in E. coli culture supernatant; also called FLAG-tagged scFv

Key:
[1] = target: T1, human CEACAM6 expressed on Pan02/Pgp-KO/hCEACAM6 cells (human, UniProt P40199 35-320); experiment: flow cytometry sorting ([..] II) of Pan02 cells transfected with human CEACAM6
T1 construct: also called carcinoembryonic antigen-related cell adhesion molecule 6; CD66c
T1 sequence: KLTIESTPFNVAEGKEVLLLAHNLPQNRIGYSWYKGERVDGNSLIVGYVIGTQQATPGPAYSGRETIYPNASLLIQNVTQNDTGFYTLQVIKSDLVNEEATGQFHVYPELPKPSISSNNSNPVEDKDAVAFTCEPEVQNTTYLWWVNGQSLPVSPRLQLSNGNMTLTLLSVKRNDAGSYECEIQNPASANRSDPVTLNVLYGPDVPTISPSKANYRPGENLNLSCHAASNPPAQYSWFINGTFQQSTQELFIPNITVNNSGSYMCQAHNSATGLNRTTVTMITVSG
Excerpt: The mouse pancreatic cancer cell line Pan02 (National Institutes of Health) was transfected with recombinant Cas9 protein (Alt-R S.p. HiFi Cas9 V3, Integrated DNA Technologies), and mouse Abcb1a and single guided RNA (Aft-R CRISPR sgRNA, Integrated DNA Technologies) for Abcb1b, using a NEPA21 Super Electroporator (Nepa Gene). The obtained cells were further transfected with human CEACAM6 using pLV[Exp]-Puro-EFS lentiviral vector (VectorBuilder) and MISSION Lentiviral Packaging Mix (Sigma-Aldrich). […] The established cells were designated as cell line Pan02/Pgp-KO/hCEACAM6, and were maintenance cultured in a 5% CO₂ incubator (37° C.) using RPMI (FujiFilm-Wako Pure Chemical Industries) containing 10% fetal bovine serum (FBS: SIGMA 173012) and penicillin/streptomycin (FujiFilm-Wako Pure Chemical Industries) (hereunder referred to simply as “culture medium”).

[2] = target: human CEACAM6 extracellular domain-MBP-His protein (human); experiment: ELISA: FLAG-tagged scFv from E. coli supernatant captured on anti-FLAG antibody, 20 nM antigen, HRP-labeled anti-His antibody detection, absorbance at 450 nm
Method: (§1) After the second panning procedure, a single colony from the concentrated phage-infected TG1 cells was transferred to culture medium on a 96-well plate. IPTG was added to induce expression of the FLAG-tagged scFv, and vibration culture was carried out overnight at 30° C. The TG1 cells were spinned down and the scFv-containing E. coli culture supernatant was used to pickup the wells that were reactive with human CEACAM6.
(§2) Reactivity with human CEACAM6 was evaluated by ELISA according to the following procedure, using either human CEACAM6 extracellular domain-SEAP-His protein or human CEACAM6 extracellular domain-MBP-His protein. The wells of a 96-well plate (Nunc) were coated with anti-FLAG antibody (Sigma). After incubation overnight at 4° C., the wells were blocked with 2% skim milk (BD) for 2 hours at room temperature. After rinsing 3 times with 0.02% Tween20/PBS (Nacalai Tesque, Inc.), human CEACAM6 extracellular domain-SEAP-His protein or human CEACAM6 extracellular domain-MBP-His protein (final concentration: 20 nM) and E. coli culture supernatant containing scFv were added to each well and incubation was continued for 2 hours at room temperature. […] An equivalent of stopping solution (1N H₂SO₄, FujiFilm Wako Pure) was added to each well, and the absorbance at 450 nm was read off using a microplate reader (Thermo Scientific). […]

[3] = target: T2, human CEACAM6 extracellular domain-SEAP-His protein (human); experiment: as above
T2 chain: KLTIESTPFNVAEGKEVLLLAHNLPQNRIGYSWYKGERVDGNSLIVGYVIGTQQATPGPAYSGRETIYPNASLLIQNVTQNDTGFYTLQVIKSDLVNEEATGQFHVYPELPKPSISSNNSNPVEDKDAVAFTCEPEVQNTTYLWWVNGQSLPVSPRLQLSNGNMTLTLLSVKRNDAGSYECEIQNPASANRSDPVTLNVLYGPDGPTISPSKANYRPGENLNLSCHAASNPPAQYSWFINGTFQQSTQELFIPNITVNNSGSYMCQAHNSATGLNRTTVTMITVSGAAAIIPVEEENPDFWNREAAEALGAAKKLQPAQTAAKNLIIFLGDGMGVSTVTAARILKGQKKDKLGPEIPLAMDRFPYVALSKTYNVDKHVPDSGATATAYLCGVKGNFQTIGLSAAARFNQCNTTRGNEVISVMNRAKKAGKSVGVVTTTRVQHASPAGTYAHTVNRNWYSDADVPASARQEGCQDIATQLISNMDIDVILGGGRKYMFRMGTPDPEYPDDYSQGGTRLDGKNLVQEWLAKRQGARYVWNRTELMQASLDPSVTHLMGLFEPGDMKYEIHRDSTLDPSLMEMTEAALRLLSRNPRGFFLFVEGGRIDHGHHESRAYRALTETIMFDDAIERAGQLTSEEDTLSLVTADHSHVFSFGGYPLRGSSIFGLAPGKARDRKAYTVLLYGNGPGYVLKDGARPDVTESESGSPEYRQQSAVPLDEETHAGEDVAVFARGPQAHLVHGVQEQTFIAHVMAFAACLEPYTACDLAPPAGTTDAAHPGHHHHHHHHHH
Method: as §1, §2

Binder	binding result [1]	binding result [2]	binding result [3]
B1	binds	–	–
B2	–	binds	binds
